Test results published in the RNAGym collection of RNA variant scans (doi:10.1073/pnas.2313332121).
Variants at the floor of the assay were thinned out.

B1: TPR 5TU (parent)
chain: GGAUCUUCUCGAUCUAACAAAAAAGACAAAUCUGCCACAAAGCUUGAGAGCAUCUUCGGAUGCAGAGGCGGCAGCCUUCGGUGGCGCGAUAGCGCCAACGUUCUCAACUAUGACACGCAAAACGCGUGCUCCGUUGAAUGGAGUUUAUCAUG

Variants of: B1
Assay: polymerase ribozyme fitness, log enrichment relative to wild type (log ratio); higher = more active; in vitro selection for triplet polymerase activity
How it was run: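 Streptavidin-bead capture of gel-excised extended constructs, followed by RT-PCR, closed a single triplicate in vitro selection round. That round began by annealing PCR-built, transcribed mutant libraries of each subunit of a heterodimeric triplet polymerase ribozyme with a biotinylated primer, the partner subunit and triplets, then incubating them frozen at −7 °C. After Illumina sequencing of inputs and outputs, genotypes needed ≥10 input reads and ≥1 read per output. Fitness is the base-2 logarithm of genotype enrichment over wild-type enrichment, using inverse-variance-weighted replicate averages.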

| Variant | polymerase ribozyme fitness (log ratio) |
| --- | --- |
| U13G C38A C93G C116G A122G | ≤ -4.2 |
| G83A A115C A122U U134A | -3.03 |
| C54G C116U | -1.08 |
| A21C A89C C95U A142G | -3.16 |
| G92U A106C | -0.0112 |
| C79G G81U G133A | ≤ -4.2 |
| U6G G100A A107U A113U | ≤ -4.2 |
| U13A C38U A60C G83C | ≤ -4.2 |
| G94A G141U | 0.898 |
| A23G | -1.78 |
| C76G G83U C103U | ≤ -4.2 |
| A106G C118U | 0.261 |
| C114G A119G | -2.84 |
| C54U G88C | ≤ -4.2 |
| C85A A122G | -2.54 |
| U53A C54A G58A C85U | -0.519 |
| G83A C87A | ≤ -4.2 |
| C93A G140A | -4.11 |
| A19C A21U A40C A60C C96G A110G G136U | ≤ -4.2 |
| G46A A49C U101G | ≤ -4.2 |
| C18G G94A | -1.09 |
| A52U A73U G92U | -3.66 |
| U55G C75U | -0.769 |
| A16C A20C A39U G42C C76A C95A | ≤ -4.2 |

| Variant | polymerase ribozyme fitness (log ratio) |
| --- | --- |
| A16G U148C | -2.77 |
| U31C A52C C57U G59C C99U U145G | -3.63 |
| G50U G81A C95U | 0.505 |
| A24U U53A U55A G68C C76A C85G | ≤ -4.2 |
| A91G G140U | -4.19 |
| U6A C54U G58C C85A U134C | -1.4 |
| U56A G88U C114A | ≤ -4.2 |
| C18G A24U U33A G124A U135A | ≤ -4.2 |
| A40U C114U | -2.19 |
| A3U U31G A40U U53A C85U C95U | -3.06 |
| A20C A23U A29U G92A A110U U139G A142G U144G | ≤ -4.2 |
| C8U A52G C85A A119U U130G | ≤ -4.2 |
| A3U U31G C36U C96A | -2.99 |
| U13C C32A A49C | ≤ -4.2 |
| C27U G92C U146C U151G | ≤ -4.2 |
| G34A C85U U101G | -3.5 |
| A26G A52C G59C A64C | ≤ -4.2 |
| A39U C76A G86C G126A C132U U134A | ≤ -4.2 |
| C36A C85U | -3.7 |
| C35A U146A | -3.32 |
| C87U A98C | -1.07 |
| U15C A22G | 1.56 |
| C54A G94U G140A | ≤ -4.2 |
| A20U G50A A89U A91G | ≤ -4.2 |

| Variant | polymerase ribozyme fitness (log ratio) |
| --- | --- |
| G92C C105U | -0.217 |
| G11U A19U C32U U33C G74A C85U G141U C149A | ≤ -4.2 |
| G59U G68A U78C C93G G124A C131G G141U | ≤ -4.2 |
| A60G G126A | 1.03 |
| A20G C38U A47C A60G C93U A106G G128U | ≤ -4.2 |
| G86U A89U A113U C131G | ≤ -4.2 |
| C18G U78A G83A C118U | ≤ -4.2 |
| C27G A39C G59C C85G C105G | ≤ -4.2 |
| G86U A107G G143C U151A | ≤ -4.2 |
| G11U A22C C87U | -2.61 |
| C38U G62A C96U C129U | -0.672 |
| A21C A60U | -0.52 |
| A3U A52C G86U A119U G141U | -3.78 |
| A39U A89G G126U | -3.58 |
| A24C C93U C114U A119G | ≤ -4.2 |
| U146G A150G G152A | -1.84 |
| A41C A120U | -0.45 |
| U61A A73G | -1.42 |
| A22U U55A A66C U77A C87A | ≤ -4.2 |
| A20G A40U U77C | ≤ -4.2 |
| U31A C69G A89U C96G U104A | -3.89 |
| U4C C27U G62C C85A A138U | ≤ -4.2 |
| C8A A19G C57G G88A U146G | ≤ -4.2 |
| A16U U53A C75A C93A C103G U130A | ≤ -4.2 |

| Variant | polymerase ribozyme fitness (log ratio) |
| --- | --- |
| A24G C32A U33G G65A G80A A98U G126C U145G A147C | ≤ -4.2 |
| C8A A26U A49U G83U U101G C118U A138C | ≤ -4.2 |
| C57U G86A | -1.16 |
| C85A G126A | -1.32 |
| G42A G50U U53A U55A G83A U90C U144A | ≤ -4.2 |
| G83C C85G A122U | ≤ -4.2 |
| G11A A24G A41U C51A G59A G80A G84U U90A | ≤ -4.2 |
| A41C C57U C96U | -0.458 |
| G58U C75A U90A | ≤ -4.2 |
| A12C A20G G25A A30G U44A A89G U145G | ≤ -4.2 |
| A16G A23G A37U G86A U135A | ≤ -4.2 |
| A20U C93U G126A | -1.5 |
| A3G C8G A30G G48C A64C C87G A137G | ≤ -4.2 |
| U9G A24U U33C G143C A147C | ≤ -4.2 |
| G25U G50C C76A C87A U139G G141C | -4.02 |
| G59C C114U G128A A142U | -2.5 |
| C99G C129A | -3.81 |
| A20U C57U G59U G62U C76U C96G A147G | ≤ -4.2 |
| C18G G84U | -1.93 |
| G42U G59U G84A C85U C103G A119G | ≤ -4.2 |
| U61A A147U | -0.329 |
| A47U C96G C116U | -0.28 |
| G68A C93U | -4.04 |
| A26U A47C A49C G80C C85A A113G A150U | ≤ -4.2 |

| Variant | polymerase ribozyme fitness (log ratio) |
| --- | --- |
| U56A C87U A98U C116G | 0.0809 |
| C93U C99G G136A | -0.753 |
| C18G A64C U82G A137G | ≤ -4.2 |
| C10G U55A C69G C93U C103G C116A | ≤ -4.2 |
| C38G G42U G68A U77A C96U G141U | ≤ -4.2 |
| C57G G67C | -4.16 |
| C87A A147G | ≤ -4.2 |
| U15C G34C C57A G84U A98U | -2.33 |
| U55A A97C | 0.466 |
| U4A G59A | -1.06 |
| G83U G92C U111A | ≤ -4.2 |
| C10A A22G G46A C54U C75G G83U C95A | ≤ -4.2 |
| G92U C95A A115G A147C | ≤ -4.2 |
| A37C C95U G141C | -1.7 |
| C54U U82A C105U A119G | 0.194 |
| A28C U44A G59A C125A G143C | ≤ -4.2 |
| C32U C51A A52U C96G G136U | ≤ -4.2 |
| A49G G50A C95U U145C | -2.54 |
| A3G A17U A60U | -1.21 |
| A17C A19U | 0.475 |
| A52C U55A U82C | -2.36 |
| G86C U104A | -2.46 |
| C93A C116U | -1.88 |
| U6G A40U A66G U82A C96A G100U | ≤ -4.2 |

| Variant | polymerase ribozyme fitness (log ratio) |
| --- | --- |
| G25C U56A U104C A106U A113G U139G U145A | ≤ -4.2 |
| A23U A52C U55A G81U G84A C99A U127C U145G | ≤ -4.2 |
| A24G U61C U82G C95U | ≤ -4.2 |
| A29G C57A G58U C95U C125G | ≤ -4.2 |
| A64G A150U | -3.42 |
| A89U C99G G126A C132G | -4.08 |
| A115G U135A | -2.48 |
| C36A G92A U101A | ≤ -4.2 |
| A52C U111C A121C C123A U145A A150G | -3.02 |
| G11U G34A G50A C85U U90C G143A | ≤ -4.2 |
| A26U C51U G58C | -2.08 |
| G25U G83A | -3.4 |
| A20C G86A | -2.24 |
| A12U A17U A22C G34C U55A U56A C57U A64C C95U | ≤ -4.2 |
| C63U C103G U146G | -2.3 |
| G86A U102G | -4.05 |
| U53A A97G A121U C125A | -1.26 |
| U53G G84U C96G | ≤ -4.2 |
| C35U A47G C99G G152A | -3.48 |
| A17C C36U G68C G86A U139A | ≤ -4.2 |
| C35U G136A | 0.0897 |
| A107G C118U U145A | ≤ -4.2 |
| C38U C54A A60U | -0.76 |
| C54G U102C U144A | -3.91 |

| Variant | polymerase ribozyme fitness (log ratio) |
| --- | --- |
| G50A G86A C132U G143C C149G | ≤ -4.2 |
| C5U A12U A30C G59C C125G G126U | ≤ -4.2 |
| U139G U148A | -2.73 |
| A3C U56G C93U C114G U134A U148C | ≤ -4.2 |
| G34A G48C G59A U102G C114A G143U A147G | ≤ -4.2 |
| C99G U101A | -1.12 |
| U102G C116G G133C | -3.6 |
| A49G U55A | -0.644 |
| G71C C76G A113U G124A | ≤ -4.2 |
| C8G G92C | -3.1 |
| U7A A19C G92C C105A A115U C116U A137U | ≤ -4.2 |
| C93U C125A | -2.69 |
| A21U G50A C63G A89G C95U C116U | -1.96 |
| G59U C93U C114G | -3.92 |
| G34U C51U G59U G88A G141U A142G U146G A147U | ≤ -4.2 |
| A28C C54A C95A C105U U145A | ≤ -4.2 |
| A20C G48U G83U | -2.07 |
| C51U C75U G88A C93U G94A G136C | ≤ -4.2 |
| U4A C38A U53G C85U G94C A107G A137C G140A | ≤ -4.2 |
| A52U G92U C105A | -3.93 |
| U7G C32U C54G C96U | ≤ -4.2 |
| G25C C79A G84U A97C | ≤ -4.2 |
| C14U C54U G68C G84C C87G A91C A147C | ≤ -4.2 |
